From patent US20250283063, “NOVEL CRISPR-CAS12I SYSTEMS AND USES THEREOF” (HUIDAGENE THERAPEUTICS (SINGAPORE) PTE. LTD., published 2025)

Columns and labels:
xCas12i-E875R = molecular target: T1, xCas12i-E875R (E875R); test: cell_activity; RuvC catalytic residue; cleavage readout; conditions: tags: NLS
T1 chain: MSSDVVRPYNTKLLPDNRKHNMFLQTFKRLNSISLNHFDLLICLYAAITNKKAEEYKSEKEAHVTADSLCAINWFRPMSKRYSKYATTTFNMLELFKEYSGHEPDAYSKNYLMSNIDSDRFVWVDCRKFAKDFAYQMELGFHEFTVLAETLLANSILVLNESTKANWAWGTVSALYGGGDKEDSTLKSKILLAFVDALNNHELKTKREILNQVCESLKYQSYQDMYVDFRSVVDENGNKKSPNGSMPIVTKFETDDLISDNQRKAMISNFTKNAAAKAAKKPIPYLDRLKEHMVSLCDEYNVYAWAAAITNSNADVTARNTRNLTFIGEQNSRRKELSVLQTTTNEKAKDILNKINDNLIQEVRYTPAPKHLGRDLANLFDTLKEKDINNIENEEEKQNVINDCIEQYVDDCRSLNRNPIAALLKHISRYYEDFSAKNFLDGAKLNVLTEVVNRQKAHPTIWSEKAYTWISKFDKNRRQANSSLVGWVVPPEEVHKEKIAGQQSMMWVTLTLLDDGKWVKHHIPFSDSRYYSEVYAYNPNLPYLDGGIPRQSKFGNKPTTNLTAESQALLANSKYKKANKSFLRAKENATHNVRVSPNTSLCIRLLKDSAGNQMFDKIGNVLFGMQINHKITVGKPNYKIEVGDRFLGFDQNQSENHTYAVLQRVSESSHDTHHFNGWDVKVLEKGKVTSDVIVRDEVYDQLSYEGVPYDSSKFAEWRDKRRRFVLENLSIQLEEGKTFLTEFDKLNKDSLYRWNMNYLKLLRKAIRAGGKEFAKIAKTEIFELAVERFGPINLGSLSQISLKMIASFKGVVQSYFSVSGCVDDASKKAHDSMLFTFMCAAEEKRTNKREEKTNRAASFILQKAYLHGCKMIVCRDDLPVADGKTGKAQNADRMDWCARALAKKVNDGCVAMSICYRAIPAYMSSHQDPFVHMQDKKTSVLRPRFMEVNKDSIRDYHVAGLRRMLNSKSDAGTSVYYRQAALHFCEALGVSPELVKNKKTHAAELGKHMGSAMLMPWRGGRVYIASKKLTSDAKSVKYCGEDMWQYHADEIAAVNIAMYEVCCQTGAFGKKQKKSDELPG
Excerpt: (§1) To vary xCas12i's dsDNA cleavage activity and/or expand its scope of PAM site recognition, the applicant engineered xCas12i protein via mutagenesis and screened for mutants with various dsDNA cleavage activity and broader PAM using a dual plasmid fluorescent reporter system similar to the dual plasmid fluorescent reporter system in Example 1, except that the EGxxxxFP-targeting guide RNA (SEQ ID NO: 51; “crON/crRNA On-target”) coding sequence operably linked to U6 promoter was not located on the expression plasmid together with the xCas12i (or its mutant) coding sequence (SEQ ID NO: 31) but located on the reporter plasmid together with the BFP-P2A-EGxxxxFP coding sequence (SEQ ID NO: 41) (referring to “On-Target Reporter” in FIG. 1B). […] The applicant then individually transfected the expression plasmid and the reporter plasmid into HEK293T cells and analyzed them by FACS (FIG. 1B). […]

xCas12i-D892R (v4.3) = molecular target: T2, xCas12i-D892R (v4.3) (D892R); test: cell_activity; HEK293T EGFP reporter; conditions: tags: NLS
T2 chain: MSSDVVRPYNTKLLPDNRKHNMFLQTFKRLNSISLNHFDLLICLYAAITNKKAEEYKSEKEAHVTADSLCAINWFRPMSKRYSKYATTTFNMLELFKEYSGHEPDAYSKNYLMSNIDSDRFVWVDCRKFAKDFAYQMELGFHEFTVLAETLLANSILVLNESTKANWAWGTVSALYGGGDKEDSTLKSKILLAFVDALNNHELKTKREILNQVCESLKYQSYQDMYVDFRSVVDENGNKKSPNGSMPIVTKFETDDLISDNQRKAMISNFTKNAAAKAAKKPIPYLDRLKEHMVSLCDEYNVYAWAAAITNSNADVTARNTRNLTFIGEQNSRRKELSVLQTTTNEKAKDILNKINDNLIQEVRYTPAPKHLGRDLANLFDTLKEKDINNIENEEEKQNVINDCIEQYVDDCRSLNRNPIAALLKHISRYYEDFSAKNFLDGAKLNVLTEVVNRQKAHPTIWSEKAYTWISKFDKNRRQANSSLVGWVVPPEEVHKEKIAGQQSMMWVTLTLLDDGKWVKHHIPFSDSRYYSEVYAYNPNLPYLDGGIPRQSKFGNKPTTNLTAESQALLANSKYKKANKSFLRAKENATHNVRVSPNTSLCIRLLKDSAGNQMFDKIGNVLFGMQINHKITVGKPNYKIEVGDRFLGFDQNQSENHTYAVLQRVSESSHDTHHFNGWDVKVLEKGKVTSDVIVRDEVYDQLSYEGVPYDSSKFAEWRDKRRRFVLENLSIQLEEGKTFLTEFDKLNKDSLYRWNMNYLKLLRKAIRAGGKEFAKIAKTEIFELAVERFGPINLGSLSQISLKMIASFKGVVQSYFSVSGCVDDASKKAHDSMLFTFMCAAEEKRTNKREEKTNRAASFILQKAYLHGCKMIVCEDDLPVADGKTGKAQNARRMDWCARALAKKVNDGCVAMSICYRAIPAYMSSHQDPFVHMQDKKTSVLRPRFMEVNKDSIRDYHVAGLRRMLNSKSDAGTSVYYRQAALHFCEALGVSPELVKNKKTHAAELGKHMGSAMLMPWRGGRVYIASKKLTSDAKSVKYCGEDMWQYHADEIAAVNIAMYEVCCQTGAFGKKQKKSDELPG
Excerpt: as §1

B1: crEGFP DR-T1 ; EGxxxxFP reporter target (ssRNA ; dsDNA)
RNA: AUGACUCAGAAAUGUGUCCCCAGUUGACACCCAUUACAGUAGGAGCAUAC
DNA 1: GGATCCGTGTCTTTCCCATTACAGTAGGAGCATACGGGAGACAAGCTTTG
DNA 2: CAAAGCTTGTCTCCCGTATGCTCCTACTGTAATGGGAAAGACACGGATCC
What does the source list for B1?
binding signal (xCas12i-E875R): 0.1 relative to WT; binding signal (xCas12i-D892R (v4.3)): 1.42 relative to WT
